PMC3253920 (Biochimica et Biophysica Acta, 2011)

Target: the molecule itself
Test: crystal structure

B1: native rat liver glycine N-methyltransferase (enzyme, UniProt P13255 2-293, looked up)
chain: VDSVYRTRSLGVAAEGIPDQYADGEAARVWQLYIGDTRSRTAEYKAWLLGLLRQHGCHRVLDVACGTGVDSIMLVEEGFSVTSVDASDKMLKYALKERWNRRKEPAFDKWVIEEANWLTLDKDVPAGDGFDAVICLGNSFAHLPDSKGDQSEHRLALKNIASMVRPGGLLVIDHRNYDYILSTGCAPPGKNIYYKSDLTKDITTSVLTVNNKAHMVTLDYTVQVPGAGRDGAPGFSKFRLSYYPHCLASFTELVQEAFGGRCQHSVLGDFKPYRPGQAYVPCYFIHVLKKTG
modifications: acetylated N-terminal valine (Val1)
Question: Which “stoichiometry N” value does the source give for B1 here?
Answer: Its value is 4.
